Results taken from CN107522783A (HUABO BIOPHARM MEDICINE TECH SHANGHAI CO LTD, dated 2017).

T1: Recombinant human IL-17A (Sino Biological, 12047-HNAS) (human, UniProt Q16552 24-155)
T1 construct: mature; Bought recombinant protein; also called 人IL-17A; huIL-17A
T1 sequence (looked up): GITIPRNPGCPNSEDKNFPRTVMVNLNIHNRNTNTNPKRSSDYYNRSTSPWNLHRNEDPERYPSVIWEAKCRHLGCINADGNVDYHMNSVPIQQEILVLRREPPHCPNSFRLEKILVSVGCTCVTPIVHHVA

T2: Recombinant marmoset IL-17A (Sino Biological, 90287-CNAE-100) (marmoset, UniProt A0ACM8QD00 24-153)
T2 construct: Bought recombinant protein; also called 狨猴IL-17A
T2 sequence: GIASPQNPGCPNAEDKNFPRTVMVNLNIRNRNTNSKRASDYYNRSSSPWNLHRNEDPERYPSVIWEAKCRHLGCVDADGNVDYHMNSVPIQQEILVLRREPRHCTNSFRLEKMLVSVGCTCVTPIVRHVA

T3: Recombinant mouse IL-17A (Sino Biological, PBV10159R-010) (mouse, UniProt Q62386 26-158)
T3 construct: Bought recombinant protein; also called 小鼠的IL-17A
T3 sequence (looked up): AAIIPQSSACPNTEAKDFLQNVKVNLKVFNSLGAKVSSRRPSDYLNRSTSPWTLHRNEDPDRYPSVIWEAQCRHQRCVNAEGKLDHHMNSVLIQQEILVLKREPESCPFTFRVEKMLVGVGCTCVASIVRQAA

B1: 人源化抗体 (antibody, V domains shown)
VH: QVQLVQSGAEVKKPGASVKVSCKASGYTFTDYAMHWVRQAPGQGLEWMGVIGPYNDNTNYAQKFQGRVTMTVDTSTSTVYMELSSLRSEDTAIYYCARGERYFDYWGQGTTVTVSS
VL: DIQMTQSPSTLSASVGDRVTITCRASDHINNWLAWYQQKPGKAPKLLIYGATSLETGVPSRFSGSGSGTEYTLTISSLQPDDFATYYCQQYWTIPLTFGQGTKLEIK
notes: Expressed in CHO-K1; also called IL17-HC5-1D4/IL17-LC5-1C5; 本发明人源化抗体
B2: 嵌合抗体 (antibody, V domains shown)
VH: QVQLQQSGPEVVRPGVSVKISCKGSGYTFTDYAMHWVKQSHAKSLEWIGVIGPYNDNTNYNQKFKGKATMTVDKSSSTAYMEIARLTSEDSAIYYCARGERYFDYWGQGTTLTVSS
VL: DIQMTQSSSYLSVSLGGRVTITCRASDHINNWLAWYQQKPGNAPRLLIYGATSLETGVPSRFSGSGSGKDYTLSITSLQTEDVATYYCQQYWTIPLTFGAGTKLELK
notes: also called chimeric 14F10/9F6 antibody; 本发明嵌合抗体

What was measured:
[1] = molecular target: T1, Recombinant human IL-17A (Sino …); experiment: Biacore SPR, antibody captured on anti-human capture CM5 chip, IL-17A as analyte, 1:1 model
[2] = molecular target: T1, Recombinant human IL-17A (Sino …); experiment: indirect ELISA, human IL-17A coated at 1 μg/ml
[3] = molecular target: T2, Recombinant marmoset IL-17A (Sino …); experiment: indirect ELISA, marmoset IL-17A coated (Table 6)
[4] = molecular target: T1, Recombinant human IL-17A (Sino …); experiment: indirect ELISA, human IL-17A coated (Table 5, species cross-reactivity)
[5] = molecular target: T3, Recombinant mouse IL-17A (Sino …); experiment: indirect ELISA, mouse IL-17A coated at 1 μg/ml; paragraph 219 says 与小鼠的IL-17A无结合

Binder	Kd [1]	koff [1]	kon [1]	EC50 [2]	EC50 [3]	EC50 [4]	binding result [5]
B1	0.019 nM	0.000181 s⁻¹	9.56e+06 M⁻¹ s⁻¹				
B2	0.097 nM	0.000101 s⁻¹	1.04e+06 M⁻¹ s⁻¹	0.03 µg/mL	0.0264 µg/mL	0.03 µg/mL	no binding
